T1: 食蟹猴CD38胞外段Flag标签蛋白 cyno-CD38-ECD-Flag (cynomolgus monkey, UniProt Q5VAN0 44-301)
T1 construct: range 44-301; No linker between CD38 and the tag is stated; also called cyno-CD38-Flag
T1 sequence: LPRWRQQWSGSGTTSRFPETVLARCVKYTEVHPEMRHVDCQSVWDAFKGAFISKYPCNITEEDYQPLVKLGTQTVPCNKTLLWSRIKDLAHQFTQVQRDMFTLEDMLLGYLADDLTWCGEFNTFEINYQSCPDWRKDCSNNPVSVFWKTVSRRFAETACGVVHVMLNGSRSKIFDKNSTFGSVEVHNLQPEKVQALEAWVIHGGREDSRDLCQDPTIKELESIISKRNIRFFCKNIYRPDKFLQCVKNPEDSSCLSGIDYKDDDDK

T2: 人CD38胞外段Flag标签蛋白 hCD38-ECD-Flag (human, UniProt P28907 43-300)
T2 construct: range 43-300; No linker between CD38 and the tag is stated; also called hCD38-Flag
T2 sequence: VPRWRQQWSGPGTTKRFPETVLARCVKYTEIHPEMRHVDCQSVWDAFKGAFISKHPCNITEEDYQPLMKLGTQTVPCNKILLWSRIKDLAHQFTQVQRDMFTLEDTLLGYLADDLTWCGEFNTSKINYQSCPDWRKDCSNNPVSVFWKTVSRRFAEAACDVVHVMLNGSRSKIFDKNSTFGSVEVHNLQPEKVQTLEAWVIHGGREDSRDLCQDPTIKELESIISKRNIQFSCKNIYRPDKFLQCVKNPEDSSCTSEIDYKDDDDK

B1: 人源化抗人CD38单克隆抗体57H (antibody, human IgG1, kappa, V domains shown)
VH: EVQLVESGGGLVQPGGSLRLSCAASGFTFSSFGMHWVRQAPGKGLEWVAYIGGDSNIIYYADTVKGRFTISRDNSKNTLYLQMNSLRAEDTAVYYCAKSHDYTMDYWGQGTLVTVSS
VL: DIVMTQSPSSLAVSLGERVTITCKSSQSLLYSTNQKNYLAWFQQKPGQSPKLLIYWASTRESGVPDRFSGSGSGTDFTLTISSLQAEDVAVYYCQRYYNYPYTFGQGTKVEIKR
notes: also called 57号抗体的人源化抗体
B2: 人源化抗人CD38单克隆抗体145H (antibody, human IgG1, kappa, V domains shown)
VH: QVQLVQSGAEVKKPGASVKVSCKASGYTFTNYLIDWVRQAPGQGLEWIGLINPGSGSTKYNEKFKGRVTLTADKSTSTAYMELSSLRSEDTAVYYCAKTGTLPYWGQGTLVTVSS
VL: DIQMTQSPSSLSASVGDRVTITCKASQNVGTSVAWYQQKPGKAPKLLIYSTSYRSSGVPSRFSGSGSGTDFTLTISSLQPEDFATYYCQQYGSYPLTFGQGTKVEIKR
notes: also called 145号抗体的人源化抗体
B3: 人源化抗人CD38单克隆抗体105H (antibody, human IgG1, kappa, V domains shown)
VH: QVQLVQSGAEVKKPGASVKVSCKASGYTFTSYWMHWVRQAPGQGLEWIGHINPSSGYSEYSQKFKDRATLTADKSTSTAYMELSSLRSEDTAVYYCEIYYYVSRYVGDSWGQGTLVTVSS
VL: DIQMTQSPSSLSASVGDRVTITCRASQEISGYLSWLQQKPGKTIKRLIYAASTLDSGVPSRFSGSRSGSDFTLTISSLQPEDFATYYCLQYDSYPLTFGQGTKVEIKR
notes: Humanized IgG1; also called 105-Humanization; 105号抗体的人源化抗体
B4: 人源化抗人CD38单克隆抗体116H (antibody, human IgG1, kappa, V domains shown)
VH: QVTLKESGPALVKPTQTLTLTCTLSGFSLSTSRMGVGWIRQPPGKGLEWLAHIWWDDDKRYNPALKSRLTISKDTSSNQVFLKIASVDKEDTATYYCGRIEVGRGAWFAYWGQGTLVTVSS
VL: EIVLTQSPATLSLSPGERVSVTCKASQDVVTTVAWYQQKPGQAPRTLIYSASYRYSGVPARFSGSGSGTDFTLTISSLEPEDFAVYYCQQYYTYPFTFGQGTKVEIKR
notes: also called 116号抗体的人源化抗体

Assays:
[1] = biological target: T1, 食蟹猴CD38胞外段Flag标签蛋白 cyno-CD38-ECD-Flag; test: SPR, Biacore T200; antibody captured on Protein A CM5 chip, cyno-CD38-Flag as analyte
[2] = biological target: T2, 人CD38胞外段Flag标签蛋白 hCD38-ECD-Flag; test: SPR, Biacore T200; antibody captured on Protein A CM5 chip, hCD38-Flag as analyte

Binder	Kd [1]	koff [1]	kon [1]	Kd [2]	koff [2]	kon [2]
B1	1.68 nM	9.2e-05 s⁻¹	54900 M⁻¹ s⁻¹	0.382 nM	0.000101 s⁻¹	264000 M⁻¹ s⁻¹
B2	40.2 nM	0.00393 s⁻¹	97800 M⁻¹ s⁻¹	3.22 nM	0.00198 s⁻¹	612000 M⁻¹ s⁻¹
B3	3.4 nM	0.000208 s⁻¹	61100 M⁻¹ s⁻¹	32.8 nM	0.000975 s⁻¹	29800 M⁻¹ s⁻¹
B4	0.405 nM	0.000102 s⁻¹	251000 M⁻¹ s⁻¹	0.065 nM	9.53e-05 s⁻¹	1.47e+06 M⁻¹ s⁻¹

Source: patent CN114437215A (SHANGHAI MAIJI BIOTECHNOLOGY CO LTD, dated 2022)
